Reference: the DeepSol protein solubility set

test: soluble on expression in E. coli; label from the status in PepcDB or PDB records

Soluble on expression in E. coli, not soluble:
MGSDKIHHHHHHSGKLRKSNESGAMRAFRDGEVTIMVNVNLFTEGIDLPGVDVCIMLRPTASLSLYLQFAMRALNPRDGKRAILIDHVGNHIRHGLPNDDRYWTLEGVDKRKSSSKEKEEAPKTCENCFATFYRDRIVDGKCPYCGEPLKIIKDIEKEATNETLTLINQGMEFVSIRGEMIEVTREEALVYKRVKRYGKKYERCESLAELKAFRIIHGYAPGWLWHKQKELNLWRN
MGSDKIHHHHHHTYDYFEDETNYQVFVPEVLNKTVSDCRVLVYNDAGTLVGARYATSPWDKDPRMEAGLFSFRLTPGEYKVYCYTNTDSLTFVDGQHLDASAFILKSSSTGPNRYVQPSDILFQKFVPAIVHPGILQTDTAALERYTGRITVRFKKFPGDVSHIKKVQLLAEGAPVMQYLKNDTLTGRLTPEDKMFHFGTLPVQEKADVLEVDHRFIPSVENEPMRLNYTFLDENGAVVNHLPVEVTERETGLPLRLLHGKRIIIEIESYTVIKISVVGWNEDIESGDTDME
MGSDKIHHHHHHVAKPKTVYICSECGGQSPKWAGQCPSCNAWNTLVESVAEAPSTHRFQSLAKSAPVRRLADIEASDVPRFTTGVSEFDRVLGGGLVPGGVVLIGGDPGIGKSTLLLQSLAEIAADKRALYISGEESAAQIALRAQRLSLLEPGSRASELQLLAEIQLEKIQATIAEQRPDVAVIDSIQTVYSDALTSAPGSVAQVRECAAQLTRIAKQSGTTIIMVGHVTKEGALAGPRVLEHIVDTVLYFEGDTHSSYRLVRAIKNRFGAVNELGVFAMTERGLRGVANPSALFLSQHEQSVAGSCVLVTQEGTRPLLVEVQALVDAANAPNPRRLAVGLEQNRLAMLLAVLHRHAGIACFDQDVFLNAVGGVKITEPAADLAVLLAIHSSMRNKPLPKGLVVFGEVGLAGEIRPSPRGQERLKEAAKLGFSVAVIPRANAPKQPIEGLQVVAVERIEQAIDRVRTLE
MGSDKIHHHHHHVDDRPGTTGIRRTNPVMTDPKHRTEAPFDEQIIREYLIDNPDFFGRYPELLLAMRMSHTERGTVSLLERRQEMYRNRVAQLEEEITALMTQARRNEKIFRFNNDLQFKLLASAALGDVRQILSQALMSEFGFTHVRLITVHDVDSELSAIWSNRLARGHYFGRLTASESRRLFGSEVGSVALTRLSEHCGQVVFAIASQDPAHFHPEMDNLLLDQLRRILDHLLPRL
MGSDKIHHHHHHVFIGIETTDPEGLKETGKVQNLREDPLTAVRRIYAHGIDVLGGFIIGFDHDTMATFEHQYRFITDAGIQSAMIGLLMALPRTPLHERMQREGRLLPLDGHADNTCLTTNIAPRSMNIDAMVAAYQELYRRLLTGPEIGRRIRNKMKYLQAPVYGSGYSMGQRAGILARLMVRGIGAGGLSTLVAFLRSFPFLTPSRIPMVISDWIIGLSMKAFAETSLLGRSTQGLNNAATGISTGLRDP
MGSDKIHHHHHHVGAGHPRKELEGKAKATKQQQDLKKLLSGQKHVAFPQQVVALPFDASANLTALVYEPLLPLQYSDYKGAQLITGLRKIHEKNVVHGDISVRNIMQSKQGVAKFIDLNPMDPLSESKKSRDIRYLGKSLLEMKFAKSLEQENHRMLSYIAKHEDIYSKAQSNQAYQELKYNNAWFTYSLTQSGSIEKVPGDMDTFLELLGMEEIIKRDLEKQAGEVFSFDGKFAKFISEQPDPENTDFTAMALYMLEHGQIPNNADGILAKLLRVKQ
MGSDKIHHHHHHVKEIRERGGTVKQQLITTHDGGRLALYSYGTVDAPGERRVVVIGGAFLTALIYRPFSEALSKGLGDGWAVDVYDRRGRGESTPQPADYSMATEIADVRTIMDATGARNLFGHSLGGSVALNAVQEFVGTAHQPDRLAVYDAAVNIDGSVDTSWLDSFERSVNEGNVPHALAKLKKGMQPGTAMARIPEPVLAGLMALVSRTKVNRLFKEVMPSGVGELKAVFDEADHVRDFSVLPPNTRFMVGSKSPRYYKVTAELLHRAVPGSVLQVSPKCVHASIPAAVKELVADISAYYKG
MGSDKIHHHHHHVKKLELYTGTEQGKPAIGIRLGGEASIQDLLDLWQPLCDDSELFKSYAAGNHATCRGCLHNCCQTAYVIPDLISFKKMAAHLHLTYKEFLSADFFDAEKLEAGIVRMKPNPCIFLQDNICSIYPLRSLICRFYICCQLMGDCEQLIYSICWSGSAATQLFAEQEGLINSKGSGALSSFDLMFKRLMEEYRFDPRVQLFLQANDYYDIPLSAFTAADI
MGSDKIHHHHHHVKSELIWSKALETSRKAIDCAAVIPLETYKYKSIKKCFDFELRFLKRTFPKNLIDYGPKANPFIPWDRRLEVQAVNDNYTIILNKYPVQLGHLLLISNYWKPQNSWLSIDDFEAIAKVDNDTTGLWFFNSSKDAGASQPHRHFQLLRRDKYENICPRYEWFCSLLNNSEGFNSDIKQCISIKPRKSKLDIDAHDLFNSYKSMIIEMDLGNINNDDKPLKPYNLLITEKWISLIVRSKDRAHGFGINALGFAGYFLGTRRSDIDMLIKFGPESILKDVI
MGSDKIHHHHHHVNVAQPEPGSGPTVRRMLLGSQLRRLREAKGISRADAAYKIRGSESKISRIELGRVGFKTRDVEDLLTFYGVEDEAVRDSFLKLAREANEPGWWQQYGDSLPSWFQSYVGMEEAATQLRVYETQFVPGLLQTEDYARAVVTRGGRKKLDDAARHRIATRMRRQERIRKNHNVKLWVIIDEPAVRRPVGTPEVMRAQLEHLYDLSMAPNITLQIVPFHQGVFAAETGSFTILRYPEYDLPDVVYVEQLTSCLFQEKRADVEQYTMTLEWLAVVAERPDQTRKMLQKMIKELEE
MGSDKIHHHHHHVPSGNGDNPATGARGGNMEISFLVPNSSNGSRAASAEDSGVYEDGTAEEYKVSNVTLYLFDSSSKNLVTTINVTQSDLGAGTSSGESSKEGQTIVYPCNKEITVKPGNYDILAVANGSQTFEIGQESTLLGQIDASTYGNGMITSVPGSGFIMSNRGSANMNITVESPEESDTKTQVRINLERAVAKLMVRNDSKEIYTLKNPAGVTYATVRLNNYKFINLANKFYTFRHVATLDNAPETPSAPSSYSVEAGNFGNIADNNGYLIDPYFFDKTVAGATTNFTGGSFYTNHLSKQTDSNWSGLADAGKYVSMYCLENCMFRPAQNTVYTTGIMLKGTFTPEASQTIGNNGNPVEDPLVFNTLYYFNYKFYTTLAAVGKYGDANIDGLTEESSDAELAAKQITRFTKNGGNFSTFYNYWIKHLDNNNPTVMGVMEFGIVRNNIYSVNITSIKNLGPGTPDTKPDPDENKAFLDVEFGVYPWIVRDQDADLE
MGSDKIHHHHHHVQKMAEGSHSAITLEAGKYRATVDPLGAALRTLHWGERELVWGYPEGRPQLAQGQILLPWPNRIDHGRYSFGGTTYQLEITEPELDNAIHGLTSTLLWQPSQITADSVRFTLAFDGAPGYPFRMEFWVCYSLDPDHGLHVRIGAQNTGDGPAPYGHGSHNYLTLGLPVDEVTLQLPAAEWQPVNERMIPTGPVRSVAGTDYDFRTPRQVGPTVLDTAFTGLRFDEAGRSWTVLSAGELCVGLWADDSHPWLQVFSADYPGPERRRHLAVEPMTCPPNAFVTGTDLIVLDPGQSIESSFGITSTPE
MGSDKIHHHHHHVSDLLSQDEIDALLHGVDDVEEEEVSDALDARAYDFSSQDRIVRGRMPTLEIVNERFARHLRISMFNMMRRAAEVSINGVQMLKFGEYVHTLFVPTSLNMVRFSPLKGTALITMEARLVFILVDNFFGGDGRFHAKIEGREFTPTERRIVQLLLKIIFEDYKEAWAPVMDVEFDYLDSEVNPAMANIVSPTEVVVVSSFHIEVDGGGGDFHITMPYSMIEPIRELLDAGVQSDTQDTDMRWSQALKDEIMDVEVGLDATIVEKEISLKDVMGFKAGDIIPVEMPEYIVLRVEDLPTYRCKLGRSRENLALNIREKIPRPETVKTELQLVTKKSKSRDLNNI
